Test results reported in patent US20190211057A1 (NATIONAL YANG MING UNIVERSITY, published 2019).

Legend:
[1] = molecular target: T1, integrin αvβ3 receptor on cells (HUVEC, U87MG, MCF-7, ES-2-luc) (human, UniProt P06756 31-1048; P05106 27-788); assay: immunofluorescence on U87MG and HUVEC cells, no anti-His6tag signal
T1 construct: whole, on cells; HUVEC and U87MG express αvβ3 highly, MCF-7 has low or no expression and ES-2-luc moderate expression; also called integrin αvβ3 on cells; integrin receptor on the cell membrane
T1 sequence (P06756 31-1048, chain 1 of 2): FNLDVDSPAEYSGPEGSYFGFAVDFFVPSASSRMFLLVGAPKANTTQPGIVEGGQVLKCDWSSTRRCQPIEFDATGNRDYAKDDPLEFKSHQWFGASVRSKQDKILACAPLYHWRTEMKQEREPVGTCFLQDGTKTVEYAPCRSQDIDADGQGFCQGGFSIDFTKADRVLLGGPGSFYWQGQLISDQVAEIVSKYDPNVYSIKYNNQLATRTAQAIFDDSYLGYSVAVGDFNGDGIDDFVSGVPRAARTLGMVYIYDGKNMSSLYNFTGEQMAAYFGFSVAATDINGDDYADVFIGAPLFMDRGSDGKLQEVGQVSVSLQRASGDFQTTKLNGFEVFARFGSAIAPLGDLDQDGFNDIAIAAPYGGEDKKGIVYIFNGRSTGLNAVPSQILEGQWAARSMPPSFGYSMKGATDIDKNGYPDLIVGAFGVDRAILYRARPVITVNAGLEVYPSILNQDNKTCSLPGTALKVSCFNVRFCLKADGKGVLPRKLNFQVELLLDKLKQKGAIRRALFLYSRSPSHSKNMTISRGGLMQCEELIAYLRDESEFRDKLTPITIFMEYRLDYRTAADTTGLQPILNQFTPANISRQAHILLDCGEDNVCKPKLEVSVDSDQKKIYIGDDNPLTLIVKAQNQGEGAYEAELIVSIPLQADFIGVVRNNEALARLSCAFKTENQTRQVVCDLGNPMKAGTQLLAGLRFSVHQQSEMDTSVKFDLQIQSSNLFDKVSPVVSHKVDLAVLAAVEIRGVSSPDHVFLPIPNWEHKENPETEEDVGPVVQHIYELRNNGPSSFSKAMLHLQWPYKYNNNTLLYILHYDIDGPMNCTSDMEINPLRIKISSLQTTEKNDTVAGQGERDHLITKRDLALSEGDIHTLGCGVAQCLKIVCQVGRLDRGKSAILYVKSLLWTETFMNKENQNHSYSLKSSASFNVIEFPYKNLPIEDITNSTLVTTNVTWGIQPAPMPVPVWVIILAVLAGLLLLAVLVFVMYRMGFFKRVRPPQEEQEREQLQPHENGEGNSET
T1 sequence (P05106 27-788, chain 2 of 2): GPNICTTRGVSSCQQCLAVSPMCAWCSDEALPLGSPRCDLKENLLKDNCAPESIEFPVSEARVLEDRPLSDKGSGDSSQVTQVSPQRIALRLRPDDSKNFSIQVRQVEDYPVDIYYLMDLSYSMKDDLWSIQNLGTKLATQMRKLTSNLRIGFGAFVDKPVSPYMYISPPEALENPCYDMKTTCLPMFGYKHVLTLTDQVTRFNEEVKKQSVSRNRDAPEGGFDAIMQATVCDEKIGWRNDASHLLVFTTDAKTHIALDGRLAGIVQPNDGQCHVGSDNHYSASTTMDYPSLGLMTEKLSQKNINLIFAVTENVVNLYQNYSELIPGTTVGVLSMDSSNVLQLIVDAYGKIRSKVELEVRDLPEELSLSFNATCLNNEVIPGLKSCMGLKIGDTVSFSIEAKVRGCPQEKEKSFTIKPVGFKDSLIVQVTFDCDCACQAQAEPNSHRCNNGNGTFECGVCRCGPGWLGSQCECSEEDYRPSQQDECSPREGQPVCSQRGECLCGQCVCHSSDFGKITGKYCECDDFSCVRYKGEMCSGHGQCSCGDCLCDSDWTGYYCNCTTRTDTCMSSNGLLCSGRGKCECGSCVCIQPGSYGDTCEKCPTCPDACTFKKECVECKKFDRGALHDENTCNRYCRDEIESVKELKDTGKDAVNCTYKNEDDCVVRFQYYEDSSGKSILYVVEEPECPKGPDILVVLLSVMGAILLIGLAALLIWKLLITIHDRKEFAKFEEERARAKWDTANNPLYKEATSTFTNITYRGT
From the text: Immunofluorescence is used to observe the distribution of the protein bound with cell in the cell.

integrin αvβ3 receptor [2] = molecular target: T2, integrin αvβ3 receptor (UniProt P06756 31-992; P05106 27-718); assay: ELISA on integrin αvβ3 receptor, anti-His6-HRP; paragraph 61 says yCD and yCD/UPRT cannot be bound to integrin αvβ3
T2 construct: also called αvβ3 integrin; αvβ3 integrin receptor
T2 sequence (P06756 31-992, chain 1 of 2): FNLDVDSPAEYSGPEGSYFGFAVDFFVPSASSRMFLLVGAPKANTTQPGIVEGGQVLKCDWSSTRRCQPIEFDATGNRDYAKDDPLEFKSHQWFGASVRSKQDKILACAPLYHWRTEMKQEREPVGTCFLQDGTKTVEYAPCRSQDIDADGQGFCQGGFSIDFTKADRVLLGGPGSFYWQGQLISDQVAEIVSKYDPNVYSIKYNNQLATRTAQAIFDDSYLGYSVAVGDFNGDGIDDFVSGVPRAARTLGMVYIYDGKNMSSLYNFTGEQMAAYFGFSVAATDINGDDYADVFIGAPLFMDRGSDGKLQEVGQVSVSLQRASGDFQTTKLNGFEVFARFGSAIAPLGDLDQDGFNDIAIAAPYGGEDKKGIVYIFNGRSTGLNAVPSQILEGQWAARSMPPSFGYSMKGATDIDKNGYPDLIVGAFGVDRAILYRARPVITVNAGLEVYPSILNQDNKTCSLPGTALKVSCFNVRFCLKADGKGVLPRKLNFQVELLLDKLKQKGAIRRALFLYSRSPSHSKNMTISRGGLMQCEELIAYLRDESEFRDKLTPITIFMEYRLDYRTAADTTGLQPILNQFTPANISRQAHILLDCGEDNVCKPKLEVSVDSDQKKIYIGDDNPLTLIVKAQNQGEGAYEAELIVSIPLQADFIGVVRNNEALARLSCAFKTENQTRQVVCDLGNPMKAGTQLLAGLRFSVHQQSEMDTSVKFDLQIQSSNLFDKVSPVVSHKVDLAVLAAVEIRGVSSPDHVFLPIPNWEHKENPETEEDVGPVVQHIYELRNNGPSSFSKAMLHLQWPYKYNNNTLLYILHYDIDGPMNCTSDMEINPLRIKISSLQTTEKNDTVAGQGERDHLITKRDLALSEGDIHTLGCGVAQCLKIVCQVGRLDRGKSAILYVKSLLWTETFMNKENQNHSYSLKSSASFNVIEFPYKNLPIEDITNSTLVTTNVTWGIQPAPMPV
T2 sequence (P05106 27-718, chain 2 of 2): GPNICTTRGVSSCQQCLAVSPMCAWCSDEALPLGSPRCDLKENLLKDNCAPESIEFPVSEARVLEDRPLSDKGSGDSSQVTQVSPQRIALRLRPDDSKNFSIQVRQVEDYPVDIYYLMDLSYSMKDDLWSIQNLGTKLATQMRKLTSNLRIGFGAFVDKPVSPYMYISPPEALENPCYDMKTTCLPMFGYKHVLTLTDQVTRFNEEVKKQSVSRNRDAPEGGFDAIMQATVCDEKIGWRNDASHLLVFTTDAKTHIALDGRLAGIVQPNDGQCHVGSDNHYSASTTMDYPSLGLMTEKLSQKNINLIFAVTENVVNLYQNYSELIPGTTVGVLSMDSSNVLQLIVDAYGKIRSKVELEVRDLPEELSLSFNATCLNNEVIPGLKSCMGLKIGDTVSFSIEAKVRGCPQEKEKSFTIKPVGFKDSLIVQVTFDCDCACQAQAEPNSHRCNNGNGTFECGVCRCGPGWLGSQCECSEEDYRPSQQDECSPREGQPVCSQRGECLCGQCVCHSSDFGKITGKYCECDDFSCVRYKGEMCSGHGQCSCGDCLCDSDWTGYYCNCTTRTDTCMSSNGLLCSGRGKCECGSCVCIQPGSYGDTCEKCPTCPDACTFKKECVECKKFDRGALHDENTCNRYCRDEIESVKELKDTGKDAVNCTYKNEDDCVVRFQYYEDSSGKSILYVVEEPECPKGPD
From the text: (§1) The dissociation constant Kd is obtained by prism software with curve fitting method.

integrin αvβ3 receptor [3] = molecular target: T2, integrin αvβ3 receptor; assay: ELISA on integrin αvβ3 receptor, one site-specific binding fit
From the text: The curve and receptor binding ability parameters (see FIG. 19 and Table 14) are fitted by the binding ability of DTPA-modified protein and integrin αᵥβ₃ receptor through the One site-Specific binding formula in the Graph prism program.

integrin αvβ3 receptor [4] = molecular target: T2, integrin αvβ3 receptor; assay: ELISA on integrin αvβ3 receptor (repeats Table 14)
[5] = molecular target: T1, integrin αvβ3 receptor on cells (HUVEC, …); assay: cell ELISA, U87MG against MCF-7
[6] = molecular target: T1, integrin αvβ3 receptor on cells (HUVEC, …); assay: cell-based or functional assay
[7] = molecular target: T1, integrin αvβ3 receptor on cells (HUVEC, …); assay: cell ELISA, HUVEC against MCF-7
[8] = molecular target: T1, integrin αvβ3 receptor on cells (HUVEC, …); assay: cell ELISA on HUVEC cells, anti-His-HRP
From the text: (§2) After reacted with anti-His-HRP antibody and TMB substrate, ELISA reader (OD450 nm) is used to detect the amount of recombinant protein bound to the cells, and the binding curve is drawn. The nonlinear curve of the prism software is used to make a diagram and calculate the dissociation constant (Kd).
(§3) The anti-His6-Tag-HRP antibody and TMB show the color reagent to detect the amount of recombinant protein bound to the cell, then the dissociation constant Kd value of the recombinant protein and the integrin αᵥβ₃ receptor is calculated and a binding curve is drawn.

[9] = molecular target: T1, integrin αvβ3 receptor on cells (HUVEC, …); assay: cell ELISA on MCF-7 cells (low αvβ3 expression), anti-His-HRP
From the text: as §2, §3

[10] = molecular target: T1, integrin αvβ3 receptor on cells (HUVEC, …); assay: cell ELISA on U87MG cells, anti-His-HRP
From the text: as §2, §3

integrin αvβ3 receptor [11] = molecular target: T2, integrin αvβ3 receptor; assay: ELISA on integrin αvβ3 receptor, anti-His6-HRP detection, curve fit
From the text: as §1

[12] = molecular target: T1, integrin αvβ3 receptor on cells (HUVEC, …); assay: cell ELISA on fixed HUVEC cells, anti-His6tag-HRP
integrin αvβ3 receptor [13] = molecular target: T2, integrin αvβ3 receptor; assay: ELISA on αvβ3 integrin receptor
[14] = molecular target: T1, integrin αvβ3 receptor on cells (HUVEC, …); assay: cell-based or functional assay; remark: listed apart in the source
[15] = molecular target: T1, integrin αvβ3 receptor on cells (HUVEC, …); assay: cell ELISA on fixed U87MG cells, anti-His6tag-HRP
[16] = molecular target: T1, integrin αvβ3 receptor on cells (HUVEC, …); assay: cell ELISA on fixed MCF-7 cells (low αvβ3 expression), anti-His6tag-HRP
[17] = molecular target: T1, integrin αvβ3 receptor on cells (HUVEC, …); assay: cell-based or functional assay; remark: listed apart in the source

B1: EcCD_WT (enzyme, E. coli)
chain: MSNNALQTIINARLPGEEGLWQIHLQDGKISAIDAQSGVMPITENSLDAEQGLVIPPFVEPHIHLDTTQTAGQPNWNQSGTLFEGIERWAERKALLTHDDVKQRAWQTLKWQIANGIQHVRTHVDVSDATLTALKAMLEVKQEVAPWIDLQIVAFPQEGILSYPNGEALLEEALRLRADVVGAIPHFEFTREYGVESLHKTFALAQKYDRLIDVHCDEIDDEQSRFVETVAALAHHEGMGARVTASHTTAMHSYNGAYTSRLFRLLKMSGINFVANPLVNIHLQGRFDTYPKRRGITRVKEMLESGINVCFGHDDVFDPWYPLGTANMLQVLHMGLHVCQLMGYGQINDGLNLITHHSARTLNLQDYGIAAGNSANLIILPAENGFDALRRQVPVRYSVRGGKVIASTQPAQTTVYLEQPEAIDYKRLEHHHHHH
notes: Control without RGD4C; also called E. coli cytosine deaminase (EcCD) wild type
binding result [1]: no binding

B2: EcCD_D314A (enzyme)
chain: MSNNALQTIINARLPGEEGLWQIHLQDGKISAIDAQSGVMPITENSLDAEQGLVIPPFVEPHIHLDTTQTAGQPNWNQSGTLFEGIERWAERKALLTHDDVKQRAWQTLKWQIANGIQHVRTHVDVSDATLTALKAMLEVKQEVAPWIDLQIVAFPQEGILSYPNGEALLEEALRLRADVVGAIPHFEFTREYGVESLHKTFALAQKYDRLIDVHCDEIDDEQSRFVETVAALAHHEGMGARVTASHTTAMHSYNGAYTSRLFRLLKMSGINFVANPLVNIHLQGRFDTYPKRRGITRVKEMLESGINVCFGHDAVFDPWYPLGTANMLQVLHMGLHVCQLMGYGQINDGLNLITHHSARTLNLQDYGIAAGNSANLIILPAENGFDALRRQVPVRYSVRGGKVIASTQPAQTTVYLEQPEAIDYKRLEHHHHHH
notes: Control without RGD4C; also called E. coli cytosine deaminase D314A mutant
binding result [1]: no binding

B3: yCD/UPRT (enzyme)
chain: MVVTGGMASKWDQKGMDIAYEEAALGYKEGGVPIGGCLINNKDGSVLGRGHNMRFQKGSATLHGEISTLENCGRLEGKVYKDTTLYTTLSPCDMCTGAIIMYGIPRCVVGENVNFKSKGEKYLQTRGHEVVVVDDERCKKIMKQFIDERPQDWFEDIGEASEPFKNVYLLPQTNQLLGLYTIIRNKNTTRPDFIFYSDRIIRLLVEEGLNHLPVQKQIVETDTNENFEGVSFMGKICGVSIVRAGESMEQGLRDCCRSVRIGKILIQRDEETALPKLFYEKLPEDISERYVFLLDPMLATGGSAIMATEVLIKRGVKPERIYFLNLICSKEGIEKYHAAFPEVRIVTGALDRGLDENKYLVPGLGDFGDRYYCVLEHHHHHH
notes: Control fusion without RGD4C
binding result (integrin αvβ3 receptor [2]): no binding

B4: DTPA-RGD4C-yCD (other)
chain: MACDCRGDCFCVTGGMASKWDQKGMDIAYEEAALGYKEGGVPIGGCLINNKDGSVLGRGHNMRFQKGSATLHGEISTLENCGRLEGKVYKDTTLYTTLSPCDMCTGAIIMYGIPRCVVGENVNFKSKGEKYLQTRGHEVVVVDDERCKKIMKQFIDERPQDWFEDIGELEHHHHHH
modifications: DTPA on primary amines, 0.94 DTPA per protein on average
Kd (integrin αvβ3 receptor [3]): 0.0476 µM
Kd (integrin αvβ3 receptor [4]): 0.0476 µM

B5: RGD4C-yCD/UPRT (other)
chain: MACDCRGDCFCVTGGMASKWDQKGMDIAYEEAALGYKEGGVPIGGCLINNKDGSVLGRGHNMRFQKGSATLHGEISTLENCGRLEGKVYKDTTLYTTLSPCDMCTGAIIMYGIPRCVVGENVNFKSKGEKYLQTRGHEVVVVDDERCKKIMKQFIDERPQDWFEDIGEASEPFKNVYLLPQTNQLLGLYTIIRNKNTTRPDFIFYSDRIIRLLVEEGLNHLPVQKQIVETDTNENFEGVSFMGKICGVSIVRAGESMEQGLRDCCRSVRIGKILIQRDEETALPKLFYEKLPEDISERYVFLLDPMLATGGSAIMATEVLIKRGVKPERIYFLNLICSKEGIEKYHAAFPEVRIVTGALDRGLDENKYLVPGLGDFGDRYYCVLEHHHHHH
notes: Fusion of the RGD4C peptide, yCD and yeast UPRT; His6-tagged recombinant protein; also called RGD4C-yCD/UPRPT
fold cell binding ability against MCF-7 [5]: ~5.8 fold
IC50 of 5-FC, MTT cytotoxicity, HUVEC cells incubated with 500 nM protein then washed [6]: 8.6 µM
IC50 of 5-FC, MTT cytotoxicity, MCF-7 cells (low αvβ3) incubated with 500 nM protein then washed [6]: 4340 µM
IC50 of 5-FC, MTT cytotoxicity, U87MG cells incubated with 500 nM protein then washed [6]: 5.1 µM
fold cell binding ability against MCF-7 [7]: ~6.9 fold
Kd [8]: 0.0483 µM
Kd [9]: 0.335 µM
Kd [10]: 0.0578 µM
Kd (integrin αvβ3 receptor [11]): 0.0417 µM

B6: RGD4C-EcCD_WT (other)
chain: MGCDCRGDCFCMSNNALQTIINARLPGEEGLWQIHLQDGKISAIDAQSGVMPITENSLDAEQGLVIPPFVEPHIHLDTTQTAGQPNWNQSGTLFEGIERWAERKALLTHDDVKQRAWQTLKWQIANGIQHVRTHVDVSDATLTALKAMLEVKQEVAPWIDLQIVAFPQEGILSYPNGEALLEEALRLRADVVGAIPHFEFTREYGVESLHKTFALAQKYDRLIDVHCDEIDDEQSRFVETVAALAHHEGMGARVTASHTTAMHSYNGAYTSRLFRLLKMSGINFVANPLVNIHLQGRFDTYPKRRGITRVKEMLESGINVCFGHDDVFDPWYPLGTANMLQVLHMGLHVCQLMGYGQINDGLNLITHHSARTLNLQDYGIAAGNSANLIILPAENGFDALRRQVPVRYSVRGGKVIASTQPAQTTVYLEQPEAIDYKRLEHHHHHH
notes: Fusion of the RGD4C peptide with E. coli cytosine deaminase; His6-tagged
Kd [12]: 0.0203 µM
Kd (integrin αvβ3 receptor [13]): 0.007 µM
fold binding ability against MCF-7 [5]: 23.7 fold
protein reaction concentration IC50 of cytotoxic effect, MTT, HUVEC cells, 100 µM 5-FC [14]: 0.0229 µM
protein reaction concentration IC50 of cytotoxic effect, MTT, U87MG cells, 100 µM 5-FC [14]: 0.0385 µM
Kd [15]: 0.0138 µM
fold binding ability against MCF-7 [7]: 16.1 fold
Kd [16]: 0.327 µM
IC50 of 5-FC, MTT cytotoxicity, HUVEC cells incubated with 50 nM protein then washed [17]: 35.9 µM
IC50 of 5-FC, MTT cytotoxicity, MCF-7 cells (low αvβ3) incubated with 50 nM protein then washed [17]: > 10000 µM
IC50 of 5-FC, MTT cytotoxicity, U87MG cells incubated with 50 nM protein then washed [17]: 44.1 µM

B7: RGD4C-EcCD_D314A (other)
chain: MGCDCRGDCFCMSNNALQTIINARLPGEEGLWQIHLQDGKISAIDAQSGVMPITENSLDAEQGLVIPPFVEPHIHLDTTQTAGQPNWNQSGTLFEGIERWAERKALLTHDDVKQRAWQTLKWQIANGIQHVRTHVDVSDATLTALKAMLEVKQEVAPWIDLQIVAFPQEGILSYPNGEALLEEALRLRADVVGAIPHFEFTREYGVESLHKTFALAQKYDRLIDVHCDEIDDEQSRFVETVAALAHHEGMGARVTASHTTAMHSYNGAYTSRLFRLLKMSGINFVANPLVNIHLQGRFDTYPKRRGITRVKEMLESGINVCFGHDAVFDPWYPLGTANMLQVLHMGLHVCQLMGYGQINDGLNLITHHSARTLNLQDYGIAAGNSANLIILPAENGFDALRRQVPVRYSVRGGKVIASTQPAQTTVYLEQPEAIDYKRLEHHHHHH
notes: Fusion of the RGD4C peptide with the E. coli cytosine deaminase D314A mutant; His6-tagged
Kd [12]: 0.0233 µM
Kd (integrin αvβ3 receptor [13]): 0.0091 µM
fold binding ability against MCF-7 [5]: 19.9 fold
protein reaction concentration IC50 of cytotoxic effect, MTT, HUVEC cells, 100 µM 5-FC [14]: 0.0098 µM
protein reaction concentration IC50 of cytotoxic effect, MTT, U87MG cells, 100 µM 5-FC [14]: 0.004 µM
Kd [15]: 0.0151 µM
fold binding ability against MCF-7 [7]: 12.9 fold
Kd [16]: 0.3 µM
IC50 of 5-FC, MTT cytotoxicity, HUVEC cells incubated with 50 nM protein then washed [17]: 8.2 µM
IC50 of 5-FC, MTT cytotoxicity, MCF-7 cells (low αvβ3) incubated with 50 nM protein then washed [17]: > 10000 µM
IC50 of 5-FC, MTT cytotoxicity, U87MG cells incubated with 50 nM protein then washed [17]: 5 µM

B8: yeast cytosine deaminase (yCD) (enzyme)
chain: MVVTGGMASKWDQKGMDIAYEEAALGYKEGGVPIGGCLINNKDGSVLGRGHNMRFQKGSATLHGEISTLENCGRLEGKVYKDTTLYTTLSPCDMCTGAIIMYGIPRCVVGENVNFKSKGEKYLQTRGHEVVVVDDERCKKIMKQFIDERPQDWFEDIGELEHHHHHH
notes: Recombinant, from pET28a(+), detected by its His6 tag
binding result (integrin αvβ3 receptor [2]): no binding
